Here are results for 1 substance from US20250382354A1.

By EC50 is commonly meant the concentration at which the effect is half-maximal.

Assay [1] has as its target HKU4 HR2 peptide (HKU4) (UniProt A3EX94). Briefly: peptide ELISA.
Assay [2] addresses CRCoV-240/05 HR2 peptide (CRCoV-240/05). Briefly: peptide ELISA. For orientation: An ELISA detects its analyte on a solid surface through an enzyme-linked reagent.
Assay [3] deals with HKU5 HR2 peptide (HKU5) (UniProt A3EXD0). In words: peptide ELISA.
The target of assay [4] is SARS-CoV-2 HR2 peptide (SARS-CoV-2) (UniProt P0DTC2). In words: peptide ELISA.
Assay [5] has as its target MHV HR2 peptide (MHV). In words: peptide ELISA.
The target in assay [6] is HKU24 HR2 peptide (HKU24). In words: peptide ELISA.
The target of assay [7] is MERS S ectodomain (MERS). Briefly: ELISA on coated S.
In assay [8] the target is C-terminally truncated SARS-CoV-2 S protein (pSARS-CoV2-Strunc), ancestral (SARS-CoV-2) (UniProt P0DTC2). Briefly: cell-based or functional assay.

With S2P6 (antibody), the EC50 was 0.00975 µg/mL in assay [1]; 0.0189 µg/mL in assay [2]; 0.0345 µg/mL in assay [3]; 0.0166 µg/mL in assay [4]; 0.0215 µg/mL in assay [5]; 0.0101 µg/mL in assay [6]. The same substance gave an EC50 in assay [7] of 0.066 µg/mL. The substance further came in with an Ancestral Pseudovirus IC50 (on cells with [not given]) in assay [8] of 23.2 µg/mL.
